From the supplement of paper PMC9112550, “Optimization of the antimicrobial peptide Bac7 by deep mutational scanning” (BMC Biology, 2022) come the findings set out here.
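Also: peptides expressed intracellularly from a pBAD plasmid library in pooled LB shake-flask culture, induced with 0.3% L-arabinose, DNA abundance read by NGS, three biological replicates, DESeq2 with apeglm shrinkage.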

The data set has as its system Escherichia coli TOP10. As to the kind of experiment: shrunken log2 fold change of peptide-encoding DNA abundance (4.5 h post-induction vs induction); higher = less antimicrobial activity (less host growth inhibition). The following applies: time post-induction: 4.5 h; library: site-saturation at positions 5, 18, 19, 20.
In the case of RRIRSRPPRLPRPRPRPHEAPRP, the “shrunken log2 fold change” value stood at 0.0366.

Regarding RRIRARPPRLPRPRPRPTNVPRP, the “shrunken log2 fold change” value came to 0.0619.

Consider RRIRKRPPRLPRPRPRPTGKPRP, for which the “shrunken log2 fold change” value came to 0.905.

RRIRDRPPRLPRPRPRPKFNPRP: the “shrunken log2 fold change” value was -0.236. The result for RRIRNRPPRLPRPRPRPQFAPRP reads -0.0842; that for RRIRVRPPRLPRPRPRPTGRPRP, 0.274; that for RRIRMRPPRLPRPRPRPYNNPRP, -0.4. The result for RRIRIRPPRLPRPRPRPQSDPRP reads -0.212; that for RRIRWRPPRLPRPRPRPELWPRP, 0.729.

For RRIRMRPPRLPRPRPRPDDTPRP, the “shrunken log2 fold change” value was 2.17. The result for RRIRRRPPRLPRPRPRPYWCPRP reads -0.0451; that for RRIRKRPPRLPRPRPRPLWTPRP, 0.0306. The result for RRIRIRPPRLPRPRPRPSQEPRP reads -0.317; that for RRIRIRPPRLPRPRPRPWADPRP, -0.435; that for RRIRHRPPRLPRPRPRPTNGPRP, -0.154. For RRIRGRPPRLPRPRPRPLQPPRP the value was 0.991; for RRIRNRPPRLPRPRPRPWIRPRP, -0.399; for RRIRLRPPRLPRPRPRPRDCPRP, -0.0082.

In the case of RRIRARPPRLPRPRPRPCSYPRP, the “shrunken log2 fold change” value is -0.0595. RRIRIRPPRLPRPRPRPSKWPRP: the “shrunken log2 fold change” value was -0.539. With RRIRYRPPRLPRPRPRPFYKPRP, the “shrunken log2 fold change” value was -0.00388. The result for RRIRYRPPRLPRPRPRPGHAPRP reads 3.02. For RRIRFRPPRLPRPRPRPGGRPRP the value was 0.323. For RRIRMRPPRLPRPRPRPRMQPRP the value was 0.598; for RRIRYRPPRLPRPRPRPVHGPRP, -0.014. For the sequence RRIRARPPRLPRPRPRPSTMPRP, the “shrunken log2 fold change” value is -0.237. For RRIRMRPPRLPRPRPRPHSCPRP the value was 0.0321; for RRIRFRPPRLPRPRPRPTCMPRP, -0.0546. The result for RRIRNRPPRLPRPRPRPHMSPRP reads 0.0135. Take RRIRRRPPRLPRPRPRPKGAPRP: the “shrunken log2 fold change” value was determined as 0.28. Regarding RRIRERPPRLPRPRPRPTCPPRP, the “shrunken log2 fold change” value is -0.103. The result for RRIRIRPPRLPRPRPRPPGNPRP reads -0.233; that for RRIRARPPRLPRPRPRPTDMPRP, -0.0247; that for RRIRVRPPRLPRPRPRPYLMPRP, -0.587. With RRIRSRPPRLPRPRPRPWTPPRP, the “shrunken log2 fold change” value is -0.154. For RRIRMRPPRLPRPRPRPHLAPRP the value was 1.6; for RRIRRRPPRLPRPRPRPSMMPRP, -0.216; for RRIRMRPPRLPRPRPRPERMPRP, 1.35. The result for RRIRTRPPRLPRPRPRPEGEPRP reads -0.0398; that for RRIRPRPPRLPRPRPRPFALPRP, 0.238; that for RRIRMRPPRLPRPRPRPMTQPRP, 0.22.

Turning to RRIRARPPRLPRPRPRPFVHPRP, the “shrunken log2 fold change” value was -0.207.

Turning to RRIRFRPPRLPRPRPRPSSFPRP, the “shrunken log2 fold change” value is -0.227.

As for RRIRCRPPRLPRPRPRPQHEPRP, the “shrunken log2 fold change” value is 0.0354.

As to RRIRIRPPRLPRPRPRPSCIPRP, the “shrunken log2 fold change” value is -0.0523.

Consider RRIRIRPPRLPRPRPRPYLIPRP, for which the “shrunken log2 fold change” value was -1.6. The result for RRIRERPPRLPRPRPRPHPYPRP reads -0.103; that for RRIRKRPPRLPRPRPRPMEAPRP, 0.0719; that for RRIRKRPPRLPRPRPRPTQRPRP, 1.13. For RRIRNRPPRLPRPRPRPHYCPRP the value was -0.481.
